# Source: patent US20240024501A1 (BONUM THERAPEUTICS, published 2024)
# B1: PD1-IL2-R02-A08 (scFv)
# scFv: QVQLVQSGAEVKKPGASVKVSCKVSGYTFTSYDINWVRQAPGQGLEWMGWINPNSGDTGYAQKFQGRVTMTRDTSTSTVYMELSSLRSEDTAVYYCARDTGLGYYYGSGDFDYWGQGTLVTVSSASGGGGSGGGGSGGGGSHASDIQMTQSPSSLSASVGDRVTITCQASQDIHNYLNWYQQKPGKAPKLLIYDVSNLETGVPSRFSGSGSGTDFTLTISSLQPEDFATYYCQQAISFPLTFGGGTKVEIK
# B2: PD1-IL2-R02-A11 (scFv)
# scFv: QVQLVQSGAEVKKPGASVKVSCKASGHTFTRYYMHWVRQAPGQGLEWMGIINPSGGYATYAQKFQGRVTMTRDTSTSTVYMELSSLRSEDTAVYYCASGWDVWGQGTLVTVSSASGGGGSGGGGSGGGGSHASDIQMTQSPSSLSASVGDRVTITCRASQSINSWLAWYQQKPGKAPKLLIYATSTLESGVPSRFSGSGSGTDFTLTISSLQPEDFATYYCQQSYSFPPTFGQGTKVEIK
# B3: PD1-IL2-R02-B05 (scFv)
# scFv: QVQLVQSGAEVKKPGASVKVSCKASGYTFTNYYIHWVRQAPGQGLEWMGIINPRAGYTSYALKFQGRVTMTRDTSTSTVYMELSSLRSEDTAVYYCAGGWLDWGQGTLVTVSSASGGGGSGGGGSGGGGSHASDIQMTQSPSSLSASVGDRVTITCRASQSISSWLAWYQQKPGKAPKLLIYAASSLQSGVPSRFSGSGSGTDFTLTISSLQPEDFATYYCQQSFTMPITFGQGTRLEIK
# B4: PD1-IL2-R02-B07 (scFv)
# scFv: QVQLVQSGAEVKKPGASVKVSCKASGDTFTRHYVHWVRQAPGQGLEWMGIINPSGGYASYAQKFQGRVTMTRDTSTSTVYMELSSLRSEDTAVYYCAAGLFIWGQGTLVTVSSASGGGGSGGGGSGGGGSHASDIQMTQSPSSLSASVGDRVTITCRASQSIGRWLAWYQQKPGKAPKLLIYSASNLETGVPSRFSGSGSGTDFTLTISSLQPEDFATYYCQQANSFPVTFGPGTKVDIK
# B5: PD1-IL2-R02-C02 (scFv)
# scFv: QVQLVQSGAEVKKPGVSVKVSCKASGYTFPRSYIHWVRQAPGQGLEWMGWINPHSGDTYYAQNFQGRVTMTRDTSTSTVYMELSSLRSEDTAVYYCARDTGLGYYYGSGDFDYWGQGTLVTVSSASGGGGSGGGGSGGGGSHASDIQMTQSPSSLSASVGDRVTITCRASQSISRYLNWYQQKPGKAPKLLIYTASSLQSGVPSRFSGSGSGTDFTLTISSLQPEDFATYYCQQANRFPLTFGPGTKVDIK
# notes: cell-free expressed, V5-tagged
# B6: PD1-IL2-R02-C03 (scFv)
# scFv: QVQLVQSGAEVKKPGASVKVSCKASGYTFPRYHIHWVRQAPGQGLEWMGMINPSGGTTTYAQKFQGRVTMTRDTSTSTVYMELSSLRSEDTAVYYCARDTGLGYYYGSGDFDYWGQGTLVTVSSASGGGGSGGGGSGGGGSHASDIQMTQSPSSLSASVGDRVTITCRASQSISSWLAWYQQKPGKAPKLLIYAASSLQSGVPSRFSGSGSGTDFTLTISSLQPEDFATYYCQQSHSFPLTFGGGTKVEIK
# notes: as for B5
# B7: PD1-IL2-R06-E04 (scFv)
# scFv: QVQLVQSGAEVKKPGASVKVSCKASGYTFTRYYIHWVRQAPGQGLEWMGWINAYNGDTNYAQKLQGRVTMTRDTSTSTVYMELSSLRSEDTAVYYCARDSYYYDSFDYWGQGTLVTVSSASGGGGSGGGGSGGGGSHASDIQMTQSPSSLSASVGDRVTITCRASQTITDWLAWYQQKPGKAPKLLIYGASNLQGGVPSRFSGSGSGTDFTLTISSLQPEDFATYYCQQYYSSWTFGQGTKVEIK
# notes: as for B5
# B8: PD1-IL2-R07-A04 (scFv)
# scFv: QVQLVQSGAEVKKPGASVKVSCKASGYTFTDYYMHWVRQAPGQGLEWMGIINPRAGYTSYALKFQGRVTMTRDTSTSTVYMELSSLRSEDTAVYYCTSGMDVWGQGTLVTVSSASGGGGSGGGGSGGGGSHASDIQMTQSPSSLSASVGDRVTITCRASQSISTWLAWYQQKPGKAPKLLIYAASSLQSGVPSRFSGSGSGTDFTLTISSLQPEDFATYYCQQSYSFPVTFGQGTKVEIK
# B9: PD1-IL2-R07-A09 (scFv)
# scFv: QVQLVQSGAEVKKPGASVKVSCKASGYTFTSYYMHWVRQAPGQGLEWMGIINPSDGSTTYAQSFQGRVTMTRDTSTSTVYMELSSLRSEDTAVYYCASGWDVWGQGTLVTVSSASGGGGSGGGGSGGGGSHASDIVMTQSPDSLAVSLGERATINCKSSQSVFSSANNKNYLAWYQQKPGQPPKLLIYWASTRESGVPDRFSGSGSGTDFTLTISSLQAEDVAVYYCQQYFGTPVTFGGGTKVEIK
# notes: as for B5
# B10: PD1-R04-C10 (scFv)
# chain: MSTSTEQKLISEEDLQVQLVQSGAEVKKPGASVKVSCKASGYTFTTYYMHWVRQAPGQGLEWMGIINPSGGGTLYAQKFQGRVTMTRDTSTSTVYMELSSLRSEDTAVYYCAAGLFIWGQGTTVTVSSASGGGGSGGGGSGGGGSHASDIVMTQSPDSLAVSLGERATINCKASQSLLHSSSNKNYLAWYQQKPGQPPKLLIYWASTRESGVPDRFSGSGSGTDFTLTISSLQAEDVAVYYCQQYYSTPITFGPGTKVDIKGSGLNDIFEAQKIEWHEGKPIPNPLLGLDST
# B11: PD1-R07-A05 (scFv)
# scFv: QVQLVQSGAEVKKPGASVKVSCKASGYTFTTYYVHWVRQAPGQGLEWMGIINPSGGSTSYAQNFQGRVTMTRDTSTSTVYMELSSLRSEDTAVYYCASGWDVWGQGTTVTVSSASGGGGSGGGGSGGGGSHASEIVMTQSPATLSVSPGERATLSCRASQSVNTYLAWYQQKPGQAPRLLIYGASTRATGIPARFSGSGSGTEFTLTISSLQSEDFAVYYCQQYGSSPVTFGQGTRLEIK
# B12: AF4387 (other)
# heavy 1: APTSSSTKKTQLQLEHLLLDLQMILNGINNYKNPKLTDMLTFEFYMPKKATELKHLQCLERELKPLEEVLNLAQSKNFHLRPRDLISNINVIVLELKGSETTFMCEYADETATIVEFLNRWITFCQSIISTLTGGGGSGGGGSGGGGSGGGGSQVQLVQSGAEVKKPGASVKVSCKASGYTFTDYYMHWVRQAPGQGLEWMGIINPRAGYTSYALKFQGRVTMTRDTSTSTVYMELSSLRSEDTAVYYCTSGWDVWGQGTLVTVSSAKTTAPSVYPLAPVCGDTTGSSVTLGCLVKGYFPEPVTLTWNSGSLSSGVHTFPAVLQSDLYTLSSSVTVTSSTWPSQSITCNVAHPASSTKVDKKIEPRGPTIKPCPPCKCPAPNAAGGPSVFIFPPKIKDVLMISLSPIVTCVVVDVSEDDPDVQISWFVNNVEVHTAQTQTHREDYNSTLRVVSALPIQHQDWMSGKEFKCKVNNKDLGAPIERTISKPKGSVRAPQVYVLPPPEEEMTKKQVTLTCMVTDFMPEDIYVEWTNNGKTELNYKNTEPVLDSDGSYFMYSDLRVEKKNWVERNSYSCSVVHEGLHNHHTTESFSRTPGK
# heavy 2: QVQLVQSGAEVKKPGASVKVSCKASGYTFTDYYMHWVRQAPGQGLEWMGIINPRAGYTSYALKFQGRVTMTRDTSTSTVYMELSSLRSEDTAVYYCTSGWDVWGQGTLVTVSSAKTTAPSVYPLAPVCGDTTGSSVTLGCLVKGYFPEPVTLTWNSGSLSSGVHTFPAVLQSDLYTLSSSVTVTSSTWPSQSITCNVAHPASSTKVDKKIEPRGPTIKPCPPCKCPAPNAAGGPSVFIFPPKIKDVLMISLSPIVTCVVVDVSEDDPDVQISWFVNNVEVHTAQTQTHREDYNSTLRVVSALPIQHQDWMSGKEFKCKVNNKDLGAPIERTISKPKGSVRAPQVYVLPPPEKEMTKKQVSLTCLVKDFMPEDIYVEWTNNGKTELNYKNTEPVLKSDGSYFMYSKLTVEKKNWVERNSYSCSVVHEGLHNHHTTKSFSRTPGGGGSGGGSHHHHHH
# light: DIQMTQSPSSLSASVGDRVTITCRASQSISTWLAWYQQKPGKAPKLLIYAASSLDSGVPSRFSGSGSGTDFTLTISSLQPEDFATYYCQQSYSFPVTFGQGTKVEIKRADAAPTVSIFPPSSEQLTSGGASVVCFLNNFYPKDINVKWKIDGSERQNGVLNSWTDQDSKDSTYSMSSTLTLTKDEYERHNSYTCEATHKTSTSPIVKSFNRNEC
# B13: PDL1-IFN-R01-A06 (scFv)
# scFv: QVQLVQSGAEVKKPGASVKVSCKASGGTFSSYAISWVRQAPGQGLEWVGWMDPKSGNTGYAQKFQGRVTMTRDTSTSTVYMELSSLRSEDTAVYYCARSLFPTIFGVEVAFDIWGQGTLVTVSSASGGGGSGGGGSGGGGSHASDIQMTQSPSSLSASVGDRVTITCQASQDINNYLNWYQQKPGKAPKLLIYKASSLEPGVPSRFSGSGSGTDFTLTISSLQPEDFATYYCQKSNDVPFTFGQGTKVEIK
# notes: expressed cell-free as Myc tag + scFv + V5 tag
# B14: PDL1-IFN-R01-C08 (scFv)
# scFv: QVQLVQSGAEVKKPGASVKVSCKASGGTFSSYAISWVRQAPGQGLEWMGIIDPSVTYTRYAQKFQGRVTMTRDTSTSTVYMELSSLRSEDTAVYYCARSLFPTIFGVEVAFDIWGQGTLVTVSSASGGGGSGGGGSGGGGSHASDIQMTQSPSSLSASVGDRVTITCQASQDISNYLNWYQQKPGKAPKLLIYGASTLQSGVPSRFSGSGSGTDFTLTISSLQPEDFATYYCQQTYSTPITFGQGTKVEIK
# notes: as for B13
# B15: PDL1-IFN-R01-C11 (scFv)
# scFv: QVQLVQSGAEVKKPGASVKVSCKASGGTFSSYAISWVRQAPGQGLEWMGWMDANNGNTGYAQKFQGRVTMTRDTSTSTVYMELSSLRSEDTAVYYCARSLFPTIFGVEVAFDIWGQGTLVTVSSASGGGGSGGGGSGGGGSHASDIQMTQSPSSLSASVGDRVTITCRASQSVSSYLNWYQQKPGKAPKLLIYKASSLESGVPSRFSGSGSGTDFTLTISSLQPEDFATYYCQQSSSTPLSFGGGTKVEIK
# notes: as for B13
# Target: T1, human IL-2 (human, UniProt P60568 21-153, biotin label in the IL2RB blocking assay)
# T1 construct: also called biotin-labeled IL-2 (Acro Biosystems IL2-H82E4)
# Assay: HTRF, IL-2:Fc-IL2RB
# Description: (§1) The PURExpress scFv proteins were used directly in HTRF binding assays and cell-based functional assays.
# T1 sequence (P60568 21-153 limits assumed): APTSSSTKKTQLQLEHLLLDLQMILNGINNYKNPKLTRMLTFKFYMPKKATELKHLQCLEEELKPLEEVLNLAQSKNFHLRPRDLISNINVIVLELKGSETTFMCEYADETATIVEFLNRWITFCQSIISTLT
row,Binder,IL2RB Blocking (HTRF signal)
1,B1,1610
2,B2,1780
3,B3,1610
4,B4,1810
5,B5,1070
6,B6,1210
7,B7,1110
8,B8,1610
9,B9,910
10,B10,1550
11,B11,1730

# Target: T1, human IL-2
# Assay: HTRF
# Description: as §1
row,Binder,IL2 Binding (HTRF signal)
1,B1,520
2,B2,1560
3,B3,2490
4,B4,628
5,B5,298
6,B6,293
7,B7,247
8,B8,973
9,B9,2040
10,B10,4
11,B11,19

# Target: PD-1 (human, UniProt Q15116 25-167, limits assumed)
# Assay: HTRF
# Description: as §1
# Chain of PD-1 (Q15116 25-167 limits assumed): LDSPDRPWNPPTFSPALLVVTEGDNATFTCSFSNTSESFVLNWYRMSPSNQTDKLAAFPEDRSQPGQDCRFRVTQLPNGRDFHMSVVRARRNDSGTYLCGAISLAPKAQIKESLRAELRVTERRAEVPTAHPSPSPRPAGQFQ
row,Binder,PD1 Binding (HTRF signal)
1,B1,995
2,B2,1620
3,B3,1660
4,B4,1680
5,B5,1300
6,B6,1380
7,B7,50
8,B8,730
9,B9,1240
10,B10,1550
11,B11,653

# Target: PD-1-Fc (UniProt Q15116 25-167, limits assumed)
# Assay: cell-based or functional assay
# Chain of PD-1-Fc (Q15116 25-167 limits assumed): as above
Binder,"EC50 of IL-2 activity, HEK-Blue IL-2 reporter cells, IgG1 coated wells (no PD-1) [nM]","EC50 of IL-2 activity, HEK-Blue IL-2 reporter cells, PD-1 coated wells [nM]"
B12,0.419,0.057

# Target: T2, PD-L1 (Eu-labeled) (UniProt Q9NZQ7 19-238, limits assumed, Eu label)
# T2 construct: also called Eu-labeled PD-L1
# Assay: HTRF
# Protocol: The cell-free expression samples containing V5-tagged scFvs were serially diluted in a 384-well plate. […] Plates were incubated at room temperature for 2 hours and the HTRF signal was read on an Envision (Perkin Elmer) equipped with an HTRF laser module.
row,Binder,PDL1 Binding (HTRF signal)
1,B13,2780
2,B14,2750
3,B15,3040
